Measurements reported in the supplement of paper PMC10724198.
± gives the standard deviation of the averaged measurements.

Experiments:
Saccharomyces cerevisiae [1] = test: protein stability index of tFT-peptide fusion (C-terminal peptide) (PSI (0-1 scale)); higher = more stable (slower turnover)
Procedure: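 MPS profiling in S. cerevisiae of the tFT-X12 degron library: putative degron peptides plus stable controls, 12 aa, fused to the C-terminus of a sfGFP-mCherry timer. Cells are FACS-sorted into 8 mCherry/sfGFP bins and deep-sequenced. PSI runs from 0 (unstable) to 1 (stable). Backgrounds are wild type, das1Δ and doa10Δ at 30 °C, and wild type, das1Δ, cdc34-1 and cdc53-1 at 37 °C; 2-3 technical replicates each.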

Saccharomyces cerevisiae [2] = test: as above; conditions: genetic background: wild type; temperature: 30 C
[3] = genetic background: cdc34-1, temperature: 37 C
[4] = genetic background: cdc53-1, temperature: 37 C
[5] = genetic background: das1 deletion, temperature: 30 C
[6] = genetic background: das1 deletion, temperature: 37 C
[7] = genetic background: doa10 deletion, temperature: 30 C
[8] = genetic background: wild type, temperature: 30 C
[9] = genetic background: wild type, temperature: 37 C
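Further: PSI is a weighted mean of sequencing reads over stability bins, variants kept only with over 10 reads, mCherry proximal and sfGFP distal, peptide attached via GGGS linker.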

Sequence | protein stability index (Saccharomyces cerevisiae [1]; [3]) | protein stability index (Saccharomyces cerevisiae [1]; [4]) | protein stability index (Saccharomyces cerevisiae [1]; [5]) | protein stability index (Saccharomyces cerevisiae [1]; [6]) | protein stability index (Saccharomyces cerevisiae [1]; [7]) | protein stability index (Saccharomyces cerevisiae [1]; [8]) | protein stability index (Saccharomyces cerevisiae [1]; [9]) | protein stability index (Saccharomyces cerevisiae [2])
LCFEQRYIGVLV | 0.305 ± 0.045 | 0.38376 ± 5e-05 | 0.279 ± 0.035 | 0.4433 ± 0.0021 | 0.227 ± 0.008 | 0.251 ± 0.03 | 0.393 ± 0.018 | 0.372 ± 0.0085
CVLFLGQILCVV | 0.266 ± 0.018 | 0.328 ± 0.01 | 0.28 ± 0.033 | 0.3857 ± 0.00079 | 0.236 ± 0.011 | 0.276 ± 0.017 | 0.339 ± 0.026 | 0.332 ± 0.0076
FFLLCFMMCVLL | 0.291 ± 0.015 | 0.291 ± 0.014 | 0.289 ± 0.043 | 0.374 ± 0.025 | 0.288 ± 0.01 | 0.219 ± 0.032 | 0.348 ± 0.01 | 0.259 ± 0.053
AYFLKRSSILVR | 0.311 ± 0.05 | 0.376 ± 0.015 | 0.241 ± 0.031 | 0.439 ± 0.011 | 0.2062 ± 0.002 | 0.217 ± 0.034 | 0.395 ± 0.011 | 0.352 ± 0.017
CLVWLVRIIVLD | 0.199 ± 0.019 | 0.268 ± 0.026 | 0.201 ± 0.031 | 0.366 ± 0.039 | 0.206 ± 0.005 | 0.195 ± 0.048 | 0.32 ± 0.025 | 0.298 ± 0.048
LVNSPSISSLWL | 0.695 ± 0.019 | 0.736 ± 0.034 | 0.688 ± 0.015 | 0.746 ± 0.0087 | 0.6786 ± 0.0038 | 0.691 ± 0.018 | 0.719 ± 0.008 | 0.586 ± 0.22
LRTYSFTIGTLC | 0.616 ± 0.052 | 0.637 ± 0.027 | 0.471 ± 0.024 | 0.6402 ± 0.0061 | 0.241 ± 0.027 | 0.279 ± 0.035 | 0.492 ± 0.015 | 0.385 ± 0.012
PPRPSPPPHPLP | 0.658 ± 0.028 | 0.7181 ± 0.0022 | 0.6737 ± 0.003 | 0.727 ± 0.011 | 0.681 ± 0.017 | 0.686 ± 0.01 | 0.6974 ± 0.0035 | 0.746 ± 0.059
LRCLAIFLYRAF | 0.576 ± 0.045 | 0.6238 ± 0.0039 | 0.49 ± 0.02 | 0.644 ± 0.015 | 0.399 ± 0.013 | 0.404 ± 0.02 | 0.563 ± 0.015 | 0.466 ± 0.013
FVFLCLLCISSF | 0.202 ± 0.0059 | 0.286 ± 0.011 | 0.214 ± 0.027 | 0.355 ± 0.006 | 0.193 ± 0.01 | 0.2 ± 0.03 | 0.3152 ± 0.0017 | 0.278 ± 0.012
LLYSLVALGVCV | 0.329 ± 0.0041 | 0.314 ± 0.011 | 0.28 ± 0.032 | 0.403 ± 0.0012 | 0.24309 ± 0.00016 | 0.277 ± 0.019 | 0.3667 ± 0.0013 | 0.3805 ± 0.0005
ISARPFLYSFRP | 0.683 ± 0.01 | 0.7515 ± 0.0074 | 0.643 ± 0.034 | 0.7373 ± 0.0025 | 0.644 ± 0.027 | 0.644 ± 0.041 | 0.71009 ± 0.00017 | 0.0266 ± 0.038
WSCGRVWQRFCD | 0.675 ± 0.019 | 0.74 ± 0.01 | 0.674 ± 0.018 | 0.718 ± 0.039 | 0.678 ± 0.018 | 0.631 ± 0.014 | 0.711 ± 0.016 | 0.7065 ± 0.0045
PFGYYLFVPVCY | 0.29 ± 0.0094 | 0.343 ± 0.021 | 0.265 ± 0.029 | 0.3985 ± 0.00045 | 0.238 ± 0.0039 | 0.25 ± 0.027 | 0.364 ± 0.0044 | 0.349 ± 0.0044
VLFVVLVASGLG | 0.215 ± 0.015 | 0.312 ± 0.007 | 0.204 ± 0.032 | 0.4008 ± 0.00043 | 0.163 ± 0.01 | 0.206 ± 0.026 | 0.4012 ± 0.0037 | 0.299 ± 0.023
GVQVIWGWARVF | 0.51 ± 0.14 | 0.595 ± 0.019 | 0.507 ± 0.042 | 0.654 ± 0.019 | 0.0987 ± 0.029 | 0.0712 ± 0.032 | 0.131 ± 0.036 | 0.0923 ± 0.032
RFACHDFVVLLC | 0.568 ± 0.023 | 0.605 ± 0.022 | 0.453 ± 0.017 | 0.626 ± 0.026 | 0.172 ± 0.0095 | 0.17 ± 0.029 | 0.303 ± 0.017 | 0.289 ± 0.0045
ALERCFIRRVTV | 0.513 ± 0.013 | 0.582 ± 0.024 | 0.415 ± 0.017 | 0.593 ± 0.021 | 0.322 ± 0.024 | 0.394 ± 0.016 | 0.532 ± 0.01 | 0.477 ± 0.069
RPLRRPRLPLLL | 0.654 ± 0.014 | 0.698 ± 0.025 | 0.646 ± 0.0082 | 0.6926 ± 0.0026 | 0.363 ± 0.011 | 0.397 ± 0.035 | 0.581 ± 0.01 | 0.4634 ± 0.0032
YWIFCYFFWGGV | 0.392 ± 0.032 | 0.483 ± 0.0098 | 0.358 ± 0.032 | 0.518 ± 0.008 | 0.3153 ± 0.0014 | 0.35 ± 0.015 | 0.501 ± 0.02 | 0.455 ± 0.037

Sequence | protein stability index (Saccharomyces cerevisiae [1]; [3]) | protein stability index (Saccharomyces cerevisiae [1]; [4]) | protein stability index (Saccharomyces cerevisiae [1]; [5]) | protein stability index (Saccharomyces cerevisiae [1]; [6]) | protein stability index (Saccharomyces cerevisiae [1]; [7]) | protein stability index (Saccharomyces cerevisiae [1]; [8]) | protein stability index (Saccharomyces cerevisiae [1]; [9]) | protein stability index (Saccharomyces cerevisiae [2])
GYGAVHWWFWLF | 0.604 ± 0.052 | 0.6675 ± 0.0043 | 0.587 ± 0.04 | 0.7066 ± 0.006 | 0.1934 ± 0.0013 | 0.214 ± 0.026 | 0.3761 ± 0.0034 | 0.31 ± 0.027
AFVSVHRLRLAS | 0.642 ± 0.016 | 0.724 ± 0.014 | 0.605 ± 0.017 | 0.734 ± 0.01 | 0.174 ± 0.0083 | 0.183 ± 0.037 | 0.374 ± 0.018 | 0.4053 ± 0.0023
GLFWWVWAGFFC | 0.7005 ± 0.0052 | 0.7681 ± 0.0013 | 0.583 ± 0.023 | 0.8189 ± 0.0055 | 0.428 ± 0.025 | 0.421 ± 0.018 | 0.624 ± 0.056 | 0.436 ± 0.011
FRFPCSILMTLL | 0.578 ± 0.011 | 0.6111 ± 0.0035 | 0.538 ± 0.021 | 0.622 ± 0.026 | 0.196 ± 0.0043 | 0.197 ± 0.013 | 0.297 ± 0.036 | 0.258 ± 0.028
CLHWFMVLFRVL | 0.139 ± 0.051 | 0.12 ± 0.018 | 0.296 ± 0.043 | 0.426 ± 0.0053 | 0.212 ± 0.013 | 0.122 ± 0.037 | 0.203 ± 0.015 | 0.119 ± 0.022
GCIFGNVVFVRV | 0.602 ± 0.031 | 0.6098 ± 0.0023 | 0.424 ± 0.03 | 0.6335 ± 0.0023 | 0.433 ± 0.02 | 0.433 ± 0.022 | 0.611 ± 0.0075 | 0.472 ± 0.062
VSFHFLLLVPCC | 0.0285 ± 0.0095 | 0.0251 ± 0.0019 | 0.0609 ± 0.027 | 0.0732 ± 0.023 | 0.044 ± 0.0035 | 0.0565 ± 0.02 | 0.0701 ± 0.0096 | 0.105 ± 0.082
WMSVKLLTLRLC | 0.302 ± 0.091 | 0.357 ± 0.014 | 0.438 ± 0.04 | 0.551 ± 0.019 | 0.108 ± 0.031 | 0.105 ± 0.017 | 0.124 ± 0.0049 | 0.199 ± 0.0094
RYEKIIKQINKQ | 0.609 ± 0.062 | 0.738 ± 0.015 | 0.655 ± 0.037 | 0.7664 ± 0.0071 | 0.13 ± 0.034 | 0.164 ± 0.06 | 0.429 ± 0.011 | 0.268 ± 0.044
VSFLLLSYLCSF | 0.341 ± 0.0084 | 0.389 ± 0.01 | 0.279 ± 0.031 | 0.46 ± 0.011 | 0.172 ± 0.0023 | 0.187 ± 0.019 | 0.322 ± 0.0035 | 0.266 ± 0.012
HRCLFPLEYLLI | 0.613 ± 0.055 | 0.72 ± 0.015 | 0.551 ± 0.021 | 0.701 ± 0.026 | 0.303 ± 0.022 | 0.344 ± 0.017 | 0.503 ± 0.018 | 0.473 ± 0.052
PRVPILVVFCSF | 0.423 ± 0.013 | 0.452 ± 0.014 | 0.286 ± 0.041 | 0.532 ± 0.016 | 0.22 ± 0.0097 | 0.257 ± 0.02 | 0.463 ± 0.048 | 0.402 ± 0.063
ISVQKRRAIEII | 0.586 ± 0.008 | 0.6379 ± 0.0021 | 0.496 ± 0.03 | 0.626 ± 0.0078 | 0.266 ± 0.008 | 0.305 ± 0.018 | 0.492 ± 0.03 | 0.451 ± 0.013
GCRSLRLWLTFS | 0.638 ± 0.018 | 0.7023 ± 0.0065 | 0.628 ± 0.02 | 0.726 ± 0.013 | 0.299 ± 0.0033 | 0.312 ± 0.015 | 0.551 ± 0.024 | 0.443 ± 0.029
YILPTPTVISLA | 0.262 ± 0.025 | 0.271 ± 0.006 | 0.249 ± 0.034 | 0.3667 ± 0.0033 | 0.211 ± 0.0069 | 0.256 ± 0.021 | 0.326 ± 0.01 | 0.337 ± 0.029
PRGFVRVDLLIF | 0.302 ± 0.021 | 0.481 ± 0.07 | 0.273 ± 0.027 | 0.442 ± 0.017 | 0.191 ± 0.0062 | 0.208 ± 0.031 | 0.37 ± 0.022 | 0.383 ± 0.064
LTPKRLTVCRLC | 0.553 ± 0.066 | 0.758 ± 0.012 | 0.688 ± 0.01 | 0.7862 ± 0.0057 | 0.306 ± 0.019 | 0.318 ± 0.008 | 0.628 ± 0.066 | 0.512 ± 0.079
RFFLFVFFCFGF | 0.384 ± 0.0046 | 0.387 ± 0.038 | 0.383 ± 0.034 | 0.4787 ± 0.0021 | 0.402 ± 0.0047 | 0.365 ± 0.045 | 0.437 ± 0.013 | 0.436 ± 0.014
FLFLESFLFFYL | 0.5 ± 0.052 | 0.4797 ± 0.0046 | 0.418 ± 0.03 | 0.5698 ± 0.0026 | 0.502 ± 0.0079 | 0.411 ± 0.017 | 0.525 ± 0.055 | 0.499 ± 0.02
